We go through 4 substances from PMC6028451.

One experiment concerns the target SRP (Escherichia coli) (UniProt P0AGD7). The settings on record: cited from earlier work.
Experiment [1] deals with SRP(MDCC): signal recognition particle with MDCC at position 235 in the G domain of Ffh (Escherichia coli) (UniProt P0AGD7). Briefly: other fluorescence titration; as a22 (Lep75-RNC), with SecYEG in nanodiscs (300 nM); apparent.
Experiment [2] shares this target. Briefly: stopped-flow FRET kinetics; Lep50-RNC (30 nM) in complex with SRP(MDCC) (500 nM) rapidly mixed with FtsY(Bpy) (1 µM); no SecYEG.
For experiment [3] the target is unchanged. Briefly: other fluorescence titration; SRP(MDCC) 25 nM titrated with FtsY(Bpy); SRP bound to Lep50-RNC (10 nM); buffer A, 25 °C; apparent.
Experiment [4] has the same target. Briefly: stopped-flow FRET kinetics; 70S ribosomes (50 nM) in complex with SRP(MDCC) (500 nM) rapidly mixed with FtsY(Bpy) (1 µM); acceptor (Bpy) fluorescence; no SecYEG.
For experiment [5] the target is unchanged. Briefly: other fluorescence titration; equilibrium titration monitored by FRET; SRP(MDCC) 25 nM titrated with FtsY(Bpy); SRP bound to 70S ribosomes (500 nM); buffer A, 25 °C; apparent.
For experiment [6], the target named is (Bpy)Lep50-RNC: stalled ribosome-nascent-chain complex with a nascent chain of leader peptidase (Lep) of 50 amino acids, Bodipy FL at the N-terminal methionine (Escherichia coli) (UniProt P00803). Briefly: other fluorescence titration; as a5, in the presence of FtsY (1 µM) and SecY39EG in nanodiscs; apparent.
For experiment [7], the target named is (Bpy)Lep75-RNC: stalled ribosome-nascent-chain complex with a nascent chain of leader peptidase (Lep) of 75 amino acids, Bodipy FL at the N-terminal methionine (Escherichia coli) (UniProt P00803). The description is as above.
Experiment [8] has as its target Lep50- or Lep75-RNC. Briefly: other fluorescence titration; as a5, in the presence of saturating amounts of SecYEG in nanodiscs; apparent.
The target in experiment [9] is (Bpy)Lep50-RNC: stalled ribosome-nascent-chain complex with a nascent chain of leader peptidase (Lep) of 50 amino acids, Bodipy FL at the N-terminal methionine (Escherichia coli) (UniProt P00803). Briefly: other fluorescence titration; as a5, RNC in complex with FtsY (1 µM) and SecYEG in nanodiscs (increasing to saturating); apparent.
For experiment [10], the target named is (Bpy)Lep75-RNC: stalled ribosome-nascent-chain complex with a nascent chain of leader peptidase (Lep) of 75 amino acids, Bodipy FL at the N-terminal methionine (Escherichia coli) (UniProt P00803). The description is as above.
Experiment [11] has as its target Lep50- or Lep75-RNC. Briefly: other fluorescence titration; equilibrium titration monitored by FRET; (Bpy)Lep-RNC 4 nM titrated with SRP(Alx), GDPNP 500 µM, buffer A, 25 °C; apparent; without SecYEG.
For another experiment, the target named is FtsY (Escherichia coli) (UniProt P10121). The settings on record: cited from earlier work.

Chain of FtsY (P10121 2-497): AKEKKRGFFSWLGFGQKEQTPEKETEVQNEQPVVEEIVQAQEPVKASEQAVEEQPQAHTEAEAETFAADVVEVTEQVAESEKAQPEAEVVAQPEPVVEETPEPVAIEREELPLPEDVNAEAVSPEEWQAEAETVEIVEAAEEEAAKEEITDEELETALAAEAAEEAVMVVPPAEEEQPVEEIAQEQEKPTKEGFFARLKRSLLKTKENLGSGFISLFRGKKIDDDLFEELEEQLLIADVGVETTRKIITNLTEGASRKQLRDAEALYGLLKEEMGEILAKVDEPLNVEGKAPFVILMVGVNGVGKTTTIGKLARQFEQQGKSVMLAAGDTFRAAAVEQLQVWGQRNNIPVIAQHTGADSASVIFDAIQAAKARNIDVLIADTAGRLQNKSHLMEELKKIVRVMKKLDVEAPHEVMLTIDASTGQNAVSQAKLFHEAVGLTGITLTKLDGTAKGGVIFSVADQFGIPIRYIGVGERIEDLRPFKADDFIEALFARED
Chain of SecYEG (P0AGA2 whole entry): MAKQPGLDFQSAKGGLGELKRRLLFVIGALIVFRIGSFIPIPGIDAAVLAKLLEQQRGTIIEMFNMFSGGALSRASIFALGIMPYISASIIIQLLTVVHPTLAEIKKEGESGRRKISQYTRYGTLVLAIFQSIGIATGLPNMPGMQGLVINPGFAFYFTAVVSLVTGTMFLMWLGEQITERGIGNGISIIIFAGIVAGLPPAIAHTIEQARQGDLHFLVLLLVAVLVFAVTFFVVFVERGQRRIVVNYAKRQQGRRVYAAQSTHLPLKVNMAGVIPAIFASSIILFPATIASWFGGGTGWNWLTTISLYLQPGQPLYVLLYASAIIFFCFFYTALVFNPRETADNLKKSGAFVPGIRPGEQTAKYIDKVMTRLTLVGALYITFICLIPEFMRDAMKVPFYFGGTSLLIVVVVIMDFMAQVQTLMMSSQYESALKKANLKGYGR
Chain of SecYEG (P0AG96 whole entry, further chain): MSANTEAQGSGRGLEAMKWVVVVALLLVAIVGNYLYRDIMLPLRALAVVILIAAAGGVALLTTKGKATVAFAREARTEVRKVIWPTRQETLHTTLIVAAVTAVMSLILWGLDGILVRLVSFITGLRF
Chain of SecYEG (P0AG99 whole entry, further chain): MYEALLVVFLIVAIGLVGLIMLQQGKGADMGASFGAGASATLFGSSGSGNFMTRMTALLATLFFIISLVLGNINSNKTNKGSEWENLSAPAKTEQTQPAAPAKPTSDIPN

Consider FtsY (from UniProt P10121), for which, in the experiment with SRP (Escherichia coli), the Kd was 500 nM.

Turning to “FtsY(Bpy): SRP receptor FtsY with Bodipy FL at position 487 in the N domain (from UniProt P10121 1-497)”, the Kd is 40 nM in experiment [1], 5 to 10 nM in experiment [3] and 50 nM in experiment [5]. For the same substance, the fold increase of the appKd with SecYEG against without SecYEG in experiment [1] is 10 fold. The same substance gave an average half-life time of association in experiment [2] of 1 s. The substance also had a half-life time of association in experiment [4] of 15 s.

As to “SRP(Alx): signal recognition particle with Alexa555 at position 430 in the M domain of SRP protein Ffh (from UniProt P0AGD7 1-453) (complex)”, the fold change of the apparent affinity with SecY39EG–FtsY in experiment [6] and in experiment [7] was < 5 fold throughout. The Kd with Lep50- or Lep75-RNC [8] is 15 to 20 nM; in [9], 50 nM; with Lep50- or Lep75-RNC [11] it was 3 to 4 nM. For the same substance, the α (factor by which the appKd of SRP binding is increased by SecYEG–FtsY) in experiment [10] is 4.

SecYEG (from UniProt P0AGA2): in the experiment with FtsY (Escherichia coli), the Kd is 200 nM.
